The values below come from patent US20190248860A1 (Stanford University, published 2019).

Test [1] concerns the target T1, IL-2Rβ ectodomain (amino acids 1-214), recombinant (UniProt P14784 27-240).
T1 construct: range 1-214; Used for the SPR and crystal entries; also called IL-2R13; interleukin 2 receptor beta
T1 sequence: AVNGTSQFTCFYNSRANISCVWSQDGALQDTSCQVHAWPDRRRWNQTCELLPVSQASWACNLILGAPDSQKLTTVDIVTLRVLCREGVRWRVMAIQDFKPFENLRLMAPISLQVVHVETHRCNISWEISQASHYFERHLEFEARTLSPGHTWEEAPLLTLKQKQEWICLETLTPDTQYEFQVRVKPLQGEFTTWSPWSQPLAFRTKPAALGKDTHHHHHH
Nature of the test: surface plasmon resonance. Background: Surface plasmon resonance follows binding to a sensor surface in real time, without labels.

For test [2], the target named is T1, IL-2Rβ ectodomain (amino acids 1-214), …. Nature of the test: method not given; SPR according to Example 10.
The target is the same in test [3]. Nature of the test: SPR affinities, as told in the structural discussion.
Test [4] concerns the target T2, biotinylated IL-2Rβ ectodomain (C-terminal biotin acceptor peptide and hexahistidine tag) (UniProt P14784 27-240, C-terminally biotinylated on the biotin acceptor peptide (coexpressed BirA ligase)).
T2 construct: range 1-214; Yeast staining reagent; in the second generation screen used as monomer, then detected with SAV-PE; also called tetrameric IL-2Rβ; monomeric IL-2Rβ
T2 sequence: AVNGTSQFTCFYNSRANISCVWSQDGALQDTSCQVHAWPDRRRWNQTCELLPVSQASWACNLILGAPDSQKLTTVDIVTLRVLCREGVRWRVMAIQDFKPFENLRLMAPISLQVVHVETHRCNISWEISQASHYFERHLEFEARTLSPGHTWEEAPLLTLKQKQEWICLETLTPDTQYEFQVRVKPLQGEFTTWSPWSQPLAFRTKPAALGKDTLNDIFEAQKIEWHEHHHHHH
Nature of the test: yeast display screen, labeling with 5 nM IL-2Rβ and then SAV-PE. How it is done: Upon conclusion of selections, round four and round five yeast cultures were spread on SD-CAA plates, which yielded individual yeast colonies. 48 individual yeast clones from both rounds were grown in 96-well block format and screened by labeling with 5 nM IL-2Rβ and then SAV-PE.

Residue numbers refer to the chain shown, from its start.

B1: IL-2 mutein C5 (ligand)
chain: APTSSSTKKTQLQLEHLLLDLQMILNGINNYKNPKLTRMLTFKFYMPKKATELKHLQCLEEELKHLEEVLNLANSKNFHVTPRDVVSNINVFVLELKGSETTFMCEYADETATIVEFLNRWITFCQSIISTLTHHHHHH
For the molecule B1, in test [1], the koff (as a rule, the first-order rate constant of dissociation) is 0.016 s⁻¹. The Kd (as a rule, the concentration at which binding is half-saturated) in test [2] worked out at 10 nM.

B2: IL-2 mutein D10 (ligand)
chain: B1 chain with H65P, N74H, V80F, T81D
notes: also called IL-2 D10; super-2
As for B2, the “fold affinity gain from wild-type IL-2” value in test [3] was roughly 300 fold.

B3: yeast-displayed IL-2 mutein C5 (ligand)
chain: APTSSSTKKTQLQLEHLLLDLQMILNGINNYKNPKLTRMLTFKFYMPKKATELKHLQCLEEELKHLEEVLNLANSKNFHVTPRDVVSNINVFVLELKGSETTFMCEYADETATIVEFLNRWITFCQSIISTLT
notes: Clone of the second generation yeast display library; also called C5 (yeast clone); not shown: yeast surface display fusion partner and linker encoded by vector pCT302
B3: in test [4], the binding result is “binds”.
